Experimental data taken from article PMC8589836, “A viral genome packaging ring-ATPase is a flexibly coordinated pentamer” (Nature Communications, 2021).
Positions count from the first letter of the chain named. Numbers in names are those of the source.

B1: SNAP-gp17 (SNAP-tagged full-length wild-type phage T4 large terminase gp17, labelled with SNAP-Surface 549) (enzyme, bacteriophage T4, UniProt P17312 1-610, looked up)
chain: MEQPINVLNDFHPLNEAGKILIKHPSLAERKDEDGIHWIKSQWDGKWYPEKFSDYLRLHKIVKIPNNSDKPELFQTYKDKNNKRSRYMGLPNLKRANIKTQWTREMVEEWKKCRDDIVYFAETYCAITHIDYGVIKVQLRDYQRDMLKIMSSKRMTVCNLSRQLGKTTVVAIFLAHFVCFNKDKAVGILAHKGSMSAEVLDRTKQAIELLPDFLQPGIVEWNKGSIELDNGSSIGAYASSPDAVRGNSFAMIYIDECAFIPNFHDSWLAIQPVISSGRRSKIIITTTPNGLNHFYDIWTAAVEGKSGFEPYTAIWNSVKERLYNDEDIFDDGWQWSIQTINGSSLAQFRQEHTAAFEGTSGTLISGMKLAVMDFIEVTPDDHGFHQFKKPEPDRKYIATLDCSEGRGQDYHALHIIDVTDDVWEQVGVLHSNTISHLILPDIVMRYLVEYNECPVYIELNSTGVSVAKSLYMDLEYEGVICDSYTDLGMKQTKRTKAVGCSTLKDLIEKDKLIIHHRATIQEFRTFSEKGVSWAAEEGYHDDLVMSLVIFGWLSTQSKFIDYADKDDMRLASEVFSKELQDMSDDYAPVIFVDSVHSAEYVPVSHGMSMV
modifications: SNAP-Surface 549 fluorophore (called Cy3 in the paper) on the SNAP-tag
notes: Large terminase gp17 of bacteriophage T4, full-length wild type, amplified from pET15-gp17 and inserted into pET-SNAP; Order on the chain as printed: SNAP-tag, hexa-histidine tag, full-length gp17; Added as a monomer; it assembles into the motor on the T4 head; also called WT gp17; Cy3-labeled gp17; not shown: SNAP-tag, N-terminal, kept
B2: SNAP-Q163A-gp17 (ATPase-defective Walker A P-loop mutant of SNAP-tagged gp17, labelled with SNAP-Surface 549) (enzyme, bacteriophage T4, UniProt P17312 1-610, looked up)
chain: B1 chain with Q163A
modifications: SNAP-Surface 549 fluorophore (called Cy3 in the paper) on the SNAP-tag
notes: Large terminase gp17 of bacteriophage T4, full length, with Q163A; made by overlap PCR with the SNAP-gp17 construct as template; also called Q163A mutant; not shown: SNAP-tag, N-terminal, kept

Assays:
[1] = target: the molecule itself; assay: single-molecule TIRF fluorescence (Cy3 photobleaching step counting); motors assembled from T4 heads, Cy3-labelled SNAP-gp17 monomer (2-5 uM), 1 mM ATP-gammaS and 120-bp DNA; heads held on a PEG surface by anti-T4 polyclonal antibody; only spots with packaged Cy5-DNA counted; binomial fit of step counts (486 trajectories); room temperature
[2] = target: T1, WT-gp17 (His-tagged, unlabeled wild-type phage T4 gp17) (bacteriophage T4, UniProt P17312 1-610); assay: single-molecule TIRF fluorescence (Cy3 photobleaching step counting); only the inactive SNAP-Q163A-gp17 labelled with Cy3, mixed with unlabeled WT gp17 and assembled on T4 heads; heads held on a PEG surface by anti-T4 antibody; Cy5-DNA and ATP flowed in, DNase I after ~10 min; Cy3 and Cy5 spots colocalised (2405 trajectories); room temperature; settings: both partners purified
T1 construct: Large terminase gp17 of bacteriophage T4; also called unlabeled WT gp17; source: E. coli BL21 (DE3) pLysS or codon-plus BL21 (DE3) RIPL, purified (HisTrap, Superdex-200 SEC)

[3] = target: the molecule itself; assay: not stated; assembly of the Q163A mutant into a pentamer; shown only in Supplementary Fig. 3b-g

| Binder | stoichiometry N [1] | binding result [2] | stoichiometry N [3] |
| --- | --- | --- | --- |
| B1 | 5 |  |  |
| B2 |  | binds | 5 |
